Experimental data reported in publication PMC6451128, “Structural and functional analysis of the nucleotide and DNA binding activities of the human PIF1 helicase”.

Assays:
[1] = target: T1, hPIF1HD K556A (human, UniProt Q9H611 206-620, K556A); experiment: EMSA; no nucleotide; greatest defect; 20 mM HEPES-NaOH pH 7.5 (Results say pH 7.2), 135 mM NaCl, 5% glycerol, 1 mM DTT, 1 mg/ml BSA, 20 min at 20 C; 0.4 nM T(35); G4 assay: 0.1 nM G4 DNA, 2% PEG 8000 instead of glycerol, 5 uM T(35) competitor; details: protein: recombinant; tags: His tag removed, GSRM left; label: 5' 32P (PNK)
T1 sequence: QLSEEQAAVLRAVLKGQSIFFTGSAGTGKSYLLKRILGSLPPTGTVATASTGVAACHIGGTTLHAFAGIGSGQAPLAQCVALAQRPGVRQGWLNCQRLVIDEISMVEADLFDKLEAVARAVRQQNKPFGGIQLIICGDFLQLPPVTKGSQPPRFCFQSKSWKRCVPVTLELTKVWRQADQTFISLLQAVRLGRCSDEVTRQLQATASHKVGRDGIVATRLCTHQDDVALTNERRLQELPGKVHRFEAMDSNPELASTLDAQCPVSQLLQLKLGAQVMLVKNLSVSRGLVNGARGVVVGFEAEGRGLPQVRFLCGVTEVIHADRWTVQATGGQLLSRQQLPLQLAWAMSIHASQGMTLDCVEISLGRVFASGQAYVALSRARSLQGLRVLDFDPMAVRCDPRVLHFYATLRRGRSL

[2] = target: T2, hPIF1HD R290A (human, UniProt Q9H611 206-620, R290A); experiment: EMSA; no nucleotide; apparent, near saturation not reached; 20 mM HEPES-NaOH pH 7.5 (Results say pH 7.2), 135 mM NaCl, 5% glycerol, 1 mM DTT, 1 mg/ml BSA, 20 min at 20 C; 0.4 nM T(35); G4 assay: 0.1 nM G4 DNA, 2% PEG 8000 instead of glycerol, 5 uM T(35) competitor; details: protein: recombinant; tags: His tag removed, GSRM left; label: 5' 32P (PNK)
T2 sequence: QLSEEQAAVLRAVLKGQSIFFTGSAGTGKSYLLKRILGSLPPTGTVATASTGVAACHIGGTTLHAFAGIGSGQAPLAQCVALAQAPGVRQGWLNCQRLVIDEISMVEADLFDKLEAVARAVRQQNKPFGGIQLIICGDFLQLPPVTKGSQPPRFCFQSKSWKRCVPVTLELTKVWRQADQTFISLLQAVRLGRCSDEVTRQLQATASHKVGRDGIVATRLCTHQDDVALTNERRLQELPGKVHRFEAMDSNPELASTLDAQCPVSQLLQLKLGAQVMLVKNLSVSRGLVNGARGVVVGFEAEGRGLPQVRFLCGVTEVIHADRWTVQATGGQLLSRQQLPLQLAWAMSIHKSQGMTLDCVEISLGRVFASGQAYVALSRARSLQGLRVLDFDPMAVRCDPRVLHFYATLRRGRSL

[3] = target: T3, hPIF1HD R294A (human, UniProt Q9H611 206-620, R294A); experiment: EMSA; no nucleotide; apparent; 20 mM HEPES-NaOH pH 7.5 (Results say pH 7.2), 135 mM NaCl, 5% glycerol, 1 mM DTT, 1 mg/ml BSA, 20 min at 20 C; 0.4 nM T(35); G4 assay: 0.1 nM G4 DNA, 2% PEG 8000 instead of glycerol, 5 uM T(35) competitor; details: protein: recombinant; tags: His tag removed, GSRM left; label: 5' 32P (PNK)
T3 sequence: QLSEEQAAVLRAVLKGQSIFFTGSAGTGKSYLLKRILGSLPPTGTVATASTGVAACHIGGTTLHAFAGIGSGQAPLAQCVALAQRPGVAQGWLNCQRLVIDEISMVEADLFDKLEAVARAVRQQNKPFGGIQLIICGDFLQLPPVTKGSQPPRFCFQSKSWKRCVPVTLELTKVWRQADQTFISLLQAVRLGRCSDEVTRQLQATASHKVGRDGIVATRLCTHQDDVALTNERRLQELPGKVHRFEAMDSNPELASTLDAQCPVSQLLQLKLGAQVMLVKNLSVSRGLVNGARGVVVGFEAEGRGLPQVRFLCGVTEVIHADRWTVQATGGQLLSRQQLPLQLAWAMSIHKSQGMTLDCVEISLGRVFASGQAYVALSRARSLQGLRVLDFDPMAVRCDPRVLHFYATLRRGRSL

[4] = target: T4, hPIF1HD wild-type (human, UniProt Q9H611 206-620); experiment: as above; details: protein: recombinant; tags: His tag removed by thrombin, GSRM left at N-term; label: 5' 32P (PNK)
T4 sequence: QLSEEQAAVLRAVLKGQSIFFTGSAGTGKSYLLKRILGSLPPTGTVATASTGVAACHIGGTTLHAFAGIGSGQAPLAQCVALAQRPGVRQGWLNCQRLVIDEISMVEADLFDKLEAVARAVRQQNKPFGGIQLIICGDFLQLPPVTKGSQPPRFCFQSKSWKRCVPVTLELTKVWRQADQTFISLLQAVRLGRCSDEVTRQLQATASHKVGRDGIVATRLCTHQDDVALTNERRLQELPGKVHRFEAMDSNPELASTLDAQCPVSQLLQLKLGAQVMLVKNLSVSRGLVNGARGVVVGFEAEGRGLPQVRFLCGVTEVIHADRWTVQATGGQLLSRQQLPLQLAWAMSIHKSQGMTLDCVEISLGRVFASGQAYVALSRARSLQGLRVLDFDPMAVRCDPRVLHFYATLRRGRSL

TTTTTTTTTTTTTTTTTTTTTTTTTTTTTTTTTTT (ssDNA) [poly-T(35)]
binding signal [1]: > 50 fold decrease in affinity vs WT | Kd [2]: ~40.4 nM | Kd [3]: 5.7 ± 1.6 nM | Kd [4]: 2.3 ± 0.3 nM
